The target in this test is T1, MBD3-GFP, O95983.
T1 chain: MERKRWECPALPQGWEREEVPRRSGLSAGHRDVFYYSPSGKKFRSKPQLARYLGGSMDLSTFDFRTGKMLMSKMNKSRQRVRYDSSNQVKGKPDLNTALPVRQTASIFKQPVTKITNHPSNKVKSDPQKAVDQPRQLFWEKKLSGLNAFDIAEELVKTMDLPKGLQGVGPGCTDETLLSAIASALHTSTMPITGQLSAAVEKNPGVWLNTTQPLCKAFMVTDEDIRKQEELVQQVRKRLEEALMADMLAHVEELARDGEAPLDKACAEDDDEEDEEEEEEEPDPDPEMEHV
Description: affinity purification with mass spectrometry. To be noted: remark: other sources report otherwise.

B1: DOC-1, O14519 1-115 (natural protein)
chain: MSYKPNLAAHMPAAALNAAGSVHSPSTSMATSSQYRQLLSDYGPPSLGYTQGTGNSQVPQSKYAELLAIIEELGKEIRPTYAGSKSAMERLKRGIIHARGLVRECLAETERNARS
As for B1, the stoichiometry N (as a rule, a count of units in the complex or per binding partner) amounted to 2 per MBD3.

(Values after publication PMC3592467.)
